The record followed here is patent publication US20220259330A1 (SUNSHINE GUOJIAN PHARMACEUTICAL SHANGHAI, published 2022).

Residue numbers refer to the chain shown, from its start. Numbers in names are those of the source. Where “and” joins values, the source holds several entries; their conditions need not be identical. Equal entries are not always repeated.

One test addresses T1, PD1-ECD-His (human, UniProt Q15116 25-170).
T1 construct: extracellular domain; Bought; also called recombinant protein of the extracellular segment of human PD-1 with a polyhistidine tag (Sino Biological 10377-H08H); not shown: polyhistidine tag
As to the kind of experiment: ELISA, plate coated with PD1-ECD-His. A general note: ELISA stands for enzyme-linked immunosorbent assay.

The target in a further test is T2, CD40-ECD-His (human, UniProt P25942 21-193).
T2 construct: extracellular domain; Bought; also called recombinant protein of the extracellular segment of human CD40 with a polyhistidine tag (Sino Biological 10774-H08H); not shown: polyhistidine tag
As to the kind of experiment: ELISA, plate coated with CD40-ECD-His.

A further test addresses T3, CD47-ECD-His (human, UniProt Q08722 19-139).
T3 construct: extracellular domain; Bought; also called recombinant protein of the extracellular segment of human CD47 with a polyhistidine tag (Sino Biological 12283-H08H); not shown: polyhistidine tag
As to the kind of experiment: ELISA, plate coated with CD47-ECD-His.

A further test has as its target T4, CD137-ECD-Fc (human, UniProt Q07011 24-186).
T4 construct: extracellular domain; Bought; also called recombinant protein of the extracellular segment of human CD137 with Fc tags (Sino Biological 10041-H02H); not shown: Fc tag
As to the kind of experiment: ELISA, plate coated with CD137-ECD-Fc.

The next test addresses T5, HER2-ECD-His (human, UniProt P04626 23-652).
T5 construct: extracellular domain; Bought; also called recombinant protein of the extracellular segment of human Her-2 with a polyhistidine tag (ACROBiosystems HE2-H5225); not shown: polyhistidine tag
As to the kind of experiment: ELISA, plate coated with HER2-ECD-His.

Another test concerns the target T6, PD1-His (human, UniProt Q15116 25-170).
T6 construct: extracellular domain; In-house protein; also called extracellular domain protein of human PD-1 with a 6*His tag
The experiment in a line: ELISA, plate coated with PD1-His.

The target of test [1] is T7, VEGF165-His (human, UniProt P15692-4 27-191).
T7 construct: also called Human VEGF165 with a 6*His tag
T7 sequence: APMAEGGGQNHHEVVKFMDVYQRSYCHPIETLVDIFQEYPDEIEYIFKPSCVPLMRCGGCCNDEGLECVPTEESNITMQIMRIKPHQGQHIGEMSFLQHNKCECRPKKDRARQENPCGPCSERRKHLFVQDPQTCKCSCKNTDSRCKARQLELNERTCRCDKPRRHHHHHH
As to the kind of experiment: ELISA, VEGF165-His coated at 10 ng/well.
Description: (§1) The ELISA detection method used in the following examples is described as follows: An ELISA plate was coated with recombinant proteins, respectively, and blocked with PBST containing 1% bovine serum albumin (PBST: phosphate buffer containing 0.05% Tween-20). The antibody to be tested was serially diluted, and then transferred to the above plate coated with recombinant protein, incubated at room temperature for half an hour and then the plate was washed; an appropriately diluted HRP (Horseradish Peroxidase)-labeled goat anti-human antibody (Fc- or Fab Specific, purchased from Sigma) was added, incubated at room temperature for half an hour and then the plate was washed; 100 μl of chromogenic solution with TMB (3,3′,5,5′-Tetramethylbenzidine) as a substrate was added to each well, incubated at room temperature for 1-5 min; 50 μl of stop solution (2M H₂SO₄) was added to stop the reaction. OD450 was read with a microplate reader (SpectraMax 190), and graphing and data analysis were performed using GraphPad Prism6, and EC50 was calculated.
(§2) Human VEGF165 with a 6*His tag (sequence from NCBI, Accession: AAM03108), and this recombinant protein was denoted as VEGF165-His. An ELISA plate was coated with PD1-His and VEGF165-His, with a coating concentration of 20 ng/well and 10 ng/well, respectively.

Test [2] concerns the target T8, biotinylated human PD-1 extracellular recombinant protein (Sino Biological, Cat. No. 10377-H08H-B) (human, UniProt Q15116 25-170, biotinylated).
T8 construct: extracellular domain; Bought; detection reagent in the bridging ELISAs
As to the kind of experiment: bridging ELISA: VEGF165 coated, antibody titrated, biotinylated human PD-1 at 200 ng/ml and streptavidin-HRP for detection.
Description: The microplate was coated with VEGF165 (purchased from Acrobiosystems, Cat. No.: VE5-H4210). […] OD450 was read with a microplate reader. Graphing and data analysis were performed using GraphPad Prism6, and EC50 was calculated.

Test [3] concerns the target T7, VEGF165-His. The experiment in a line: ELISA, plate coated with VEGF165-His.
Description: as §1, §2
Test [4] has as its target T7, VEGF165-His. The experiment in a line: SPR, Biacore 8K, antibody captured on Protein A/G chip, VEGF165-His injected. On the technique in general: SPR reads the build-up and loss of mass on a sensor chip optically.
Description: Herein, the affinity of the above antibodies to PD-1 or VEGF was determined by Biacore 8K (GE healthcare). On Biacore 8K, the chip coupled with Protein A/G was used to capture various antibodies, respectively, and then the recombinant protein PD1-His or VEGF165-His was injected to obtain the binding-dissociation curve, which was eluted with 6M guanidine hydrochloride regeneration buffer for next cycle. Data were analyzed using the Biacore 8K Evaluation Software.

T3 sequence (Q08722 19-139 limits assumed): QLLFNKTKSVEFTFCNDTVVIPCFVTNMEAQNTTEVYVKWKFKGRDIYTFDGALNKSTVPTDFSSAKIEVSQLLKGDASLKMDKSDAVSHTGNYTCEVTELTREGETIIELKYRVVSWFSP
T2 sequence (P25942 21-193): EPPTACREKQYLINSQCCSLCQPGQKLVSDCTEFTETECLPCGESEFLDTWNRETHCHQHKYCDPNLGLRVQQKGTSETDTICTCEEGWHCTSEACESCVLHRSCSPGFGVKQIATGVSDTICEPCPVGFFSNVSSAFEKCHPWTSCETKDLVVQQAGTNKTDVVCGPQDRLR
T6 sequence (Q15116 other isoform, or with tags, fused parts or gaps): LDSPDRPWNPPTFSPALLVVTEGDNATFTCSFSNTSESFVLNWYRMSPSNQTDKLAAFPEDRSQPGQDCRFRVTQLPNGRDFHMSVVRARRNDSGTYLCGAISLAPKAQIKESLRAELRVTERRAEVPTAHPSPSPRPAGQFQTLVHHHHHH
T1 sequence (Q15116 25-170): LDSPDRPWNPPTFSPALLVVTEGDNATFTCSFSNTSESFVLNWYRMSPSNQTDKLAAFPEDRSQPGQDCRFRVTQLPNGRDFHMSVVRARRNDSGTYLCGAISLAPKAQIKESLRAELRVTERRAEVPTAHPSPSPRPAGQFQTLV
T4 sequence (Q07011 24-186): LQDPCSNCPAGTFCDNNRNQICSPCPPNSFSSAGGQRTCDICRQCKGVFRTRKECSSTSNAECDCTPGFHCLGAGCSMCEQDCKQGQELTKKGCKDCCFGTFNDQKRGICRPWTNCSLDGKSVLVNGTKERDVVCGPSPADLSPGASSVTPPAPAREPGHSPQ
T8 sequence (Q15116 25-170): as the sequence (Q15116 25-170) above
Description for CD40-ECD-His: An ELISA plate was coated with PD1-ECD-His and CD40-ECD-His, respectively, both with a coating concentration of 10 ng/well.
Description for CD47-ECD-His: as §1

B1: 40-Fab-609-IgG4 (bispecific antibody)
heavy: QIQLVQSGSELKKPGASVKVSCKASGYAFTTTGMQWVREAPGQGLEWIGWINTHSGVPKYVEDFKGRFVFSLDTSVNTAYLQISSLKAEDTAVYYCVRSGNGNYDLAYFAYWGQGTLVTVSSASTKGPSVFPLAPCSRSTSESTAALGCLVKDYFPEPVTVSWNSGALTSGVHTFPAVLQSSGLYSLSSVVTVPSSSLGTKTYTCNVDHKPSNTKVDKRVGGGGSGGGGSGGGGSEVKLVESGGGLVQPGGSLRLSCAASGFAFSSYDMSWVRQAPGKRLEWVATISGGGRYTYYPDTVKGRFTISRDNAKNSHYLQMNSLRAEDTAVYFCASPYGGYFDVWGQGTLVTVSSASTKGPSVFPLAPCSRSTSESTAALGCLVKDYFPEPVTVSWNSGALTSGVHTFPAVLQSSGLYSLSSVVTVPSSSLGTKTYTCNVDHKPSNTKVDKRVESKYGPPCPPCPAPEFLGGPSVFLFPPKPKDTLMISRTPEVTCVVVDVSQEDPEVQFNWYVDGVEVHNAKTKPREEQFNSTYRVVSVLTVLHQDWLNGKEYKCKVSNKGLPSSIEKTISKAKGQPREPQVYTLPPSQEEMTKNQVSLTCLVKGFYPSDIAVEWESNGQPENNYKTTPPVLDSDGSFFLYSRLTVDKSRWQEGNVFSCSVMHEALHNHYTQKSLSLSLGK
light: EIVLTQSPATLSLSPGERATLSCRASQSISDYLHWYQQKPGQSPRLLIKYASHSISGIPARFSGSGSGSDFTLTISSLEPEDFAVYYCQHGHSFPWTFGQGTKVEIKRTVAAPSVFIFPPSDEQLKSGTASVVCLLNNFYPREAKVQWKVDNALQSGNSQESVTEQDSKDSTYSLSSTLTLSKADYEKHKVYACEVTHQGLSSPVTKSFNRGEC
For B1, the 50% effective concentration (EC50) with PD1-ECD-His came out at 1.02 nM; with CD40-ECD-His it was 0.0956 nM.

B2: 609-Fab-40-IgG4 (bispecific antibody)
heavy: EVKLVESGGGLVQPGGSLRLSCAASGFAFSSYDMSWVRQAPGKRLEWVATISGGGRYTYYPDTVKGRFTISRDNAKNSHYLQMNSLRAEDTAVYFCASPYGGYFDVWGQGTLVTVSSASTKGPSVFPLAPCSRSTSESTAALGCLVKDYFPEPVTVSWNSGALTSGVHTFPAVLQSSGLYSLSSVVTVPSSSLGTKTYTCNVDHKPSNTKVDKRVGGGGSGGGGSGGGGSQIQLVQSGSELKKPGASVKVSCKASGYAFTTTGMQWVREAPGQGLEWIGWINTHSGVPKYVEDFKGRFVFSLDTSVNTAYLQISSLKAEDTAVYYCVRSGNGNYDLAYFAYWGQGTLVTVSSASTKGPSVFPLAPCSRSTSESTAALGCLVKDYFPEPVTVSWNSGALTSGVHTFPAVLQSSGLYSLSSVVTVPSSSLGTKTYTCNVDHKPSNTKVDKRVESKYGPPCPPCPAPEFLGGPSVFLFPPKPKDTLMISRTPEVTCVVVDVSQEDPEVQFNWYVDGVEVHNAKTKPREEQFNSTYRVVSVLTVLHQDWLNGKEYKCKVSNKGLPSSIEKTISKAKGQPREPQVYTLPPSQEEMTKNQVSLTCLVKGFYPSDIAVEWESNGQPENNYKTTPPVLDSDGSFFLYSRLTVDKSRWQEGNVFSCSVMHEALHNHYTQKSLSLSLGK
light: B1 light
Regarding B2, the half-maximal effective concentration (EC50) amounted to 0.172 nM with PD1-ECD-His and 0.105 nM with CD40-ECD-His.

B3: 19H6-Hu (antibody, human IgG1, kappa, V domains shown)
VH: QVQLVQSGAEVKKPGASVKVSCKGSGYTFTDYAIHWVRQAPGQSLEWIGVFSIYYENINYNQKFKGRATMTVDKSTSTAYMELRSLRSDDTAVYYCARRDGGTINYWGQGTLVTVSS
VL: DVVMTQSPLSLPVTLGQPASISCRSSQSLVHSNGNTYLHWYQQRPGQSPRLLIYKVSNRFSGVPDRFSGSGSGTDFTLKISRVEAEDVGVYFCSQSTHIPWTFGQGTKVEIKR
notes: Humanized anti-human HER2, IgG1, kappa; also called 19H6-Hu-HC+19H6-Hu-LC
Take B3: the binding result with CD47-ECD-His and with CD137-ECD-Fc was “no binding” throughout. Moreover, in the test with HER2-ECD-His, the concentration giving a half-maximal response (EC50) was 0.077 nM and 0.126 nM and 0.122 nM and 0.193 nM.

B4: Anti-CD47B-Hu (antibody, human IgG1, kappa, V domains shown)
VH: QVQLVQSGAEVKKPGASVKVSCKASGYTFANHVIHWVRQAPGQGLEWMGYIYPYNDGTKYNEKFKDRVTLTSDKSTSTVYMELSSLRSEDTAVYYCARGGYYTYDDWGQGTLVTVSS
VL: B3 VL with N35K, F92Y, I99V, W101Y
notes: Humanized anti-human CD47, IgG1, kappa; also called humanized MABL-2
B4 registered a half-maximal effective concentration (EC50) with CD47-ECD-His of 0.0428 nM. Moreover, in the test with HER2-ECD-His, the binding result is given as “no binding”.

B5: Anti-CD47B-Hu-HC+19H6-Hu-LC (antibody, human IgG1, kappa, V domains shown)
VH: B4 VH
VL: B3 VL
notes: Hybrid antibody
With B5, the concentration for a half-maximal effect (EC50) with CD47-ECD-His was 0.0541 nM and 0.0617 nM. Besides, the binding result with HER2-ECD-His was “no binding”.

B6: 19H6-Hu-HC+Anti-CD47B-Hu-LC (antibody, human IgG1, kappa, V domains shown)
VH: B3 VH
VL: B3 VL with N35K, F92Y, I99V, W101Y
notes: Hybrid antibody
For the molecule B6, in the test with CD47-ECD-His, the binding result is “no binding”. The molecule further returned an EC50 with HER2-ECD-His of 0.139 nM.

B7: CD47B-Fab-19H6-IgG1 (bispecific antibody)
heavy: not shown
light: DVVMTQSPLSLPVTLGQPASISCRSSQSLVHSNGNTYLHWYQQRPGQSPRLLIYKVSNRFSGVPDRFSGSGSGTDFTLKISRVEAEDVGVYFCSQSTHIPWTFGQGTKVEIKRTVAAPSVFIFPPSDEQLKSGTASVVCLLNNFYPREAKVQWKVDNALQSGNSQESVTEQDSKDSTYSLSSTLTLSKADYEKHKVYACEVTHQGLSSPVTKSFNRGEC
On to B7, for which the EC50 in the test with CD47-ECD-His turned out to be 0.0782 nM; in the test with HER2-ECD-His, 0.106 nM.

B8: 19H6-Fab-CD47B-IgG1 (bispecific antibody)
heavy: not shown
light: B7 light
On to B8, for which the half-maximal effective concentration (EC50) with CD47-ECD-His is 0.195 nM; with HER2-ECD-His, 0.154 nM.

B9: Anti-CD40-Hu (antibody, human IgG4 S228P, kappa, V domains shown)
VH: QIQLVQSGSELKKPGASVKVSCKASGYAFTTTGMQWVREAPGQGLEWIGWINTHSGVPKYVEDFKGRFVFSLDTSVNTAYLQISSLKAEDTAVYYCVRSGNGNYDLAYFAYWGQGTLVTVSS
VL: EIVLTQSPATLSLSPGERATLSCRASQSISDYLHWYQQKPGQSPRLLIKYASHSISGIPARFSGSGSGSDFTLTISSLEPEDFAVYYCQHGHSFPWTFGQGTKVEIKR
notes: Humanized anti-human CD40, IgG4 (S228P), kappa; also called humanized MAb2.220
Regarding B9, the binding result with PD1-ECD-His was “no binding”. Further, the midpoint of the response in the test with CD40-ECD-His, the EC50, lay at 0.11 nM.

B10: Anti-CD40-Hu-HC+609-LC (antibody, human IgG4 S228P, kappa, V domains shown)
VH: B9 VH
VL: EIVLTQSPATLSLSPGERATLSCRASQSISNFLHWYQQKPGQAPRLLIKYASQSISGIPARFSGSGSGTDFTLTISSLEPEDFAVYFCQQSNSWPHTFGQGTKVEIKR
notes: Hybrid antibody
For the molecule B10, the binding result with PD1-ECD-His and with CD40-ECD-His was “no binding” in each case.

B11: 20-Hu-HC+601-LC (antibody, human IgG4 S228P, kappa, V domains shown)
VH: EVQLVESGGGLVQPGGSLRLSCAASGFVFSNYDMSWVRQAPGKRLEWVATISGGGGYTYYSDSVKGRFTISRDNAKNSLYLQMNSLRAEDTAVYYCASPYGHYGFEYWGQGTLVTVSS
VL: DIQMTQSPSSLSASVGDRVTITCSASQDISNYLNWYQQKPGKAPKVLIYFTSSLHSGVPSRFSGSGSGTDFTLTISSLQPEDFATYYCQQYSTVPWTFGQGTKVEIKR
notes: Hybrid antibody
With B11, in the test with PD1-His, the EC50 was 0.625 nM and 0.975 nM. In addition, the binding result with VEGF165-His [1] is given as “no binding”.

B12: 601 (antibody, human IgG1, kappa, V domains shown)
VH: EVQLVESGGGLVQPGGSLRLSCAASGYTFTNYGMNWVRQAPGKGLEWVGWINTYTGEPTYAADFKRRFTFSLDTSKSTAYLQMNSLRAEDTAVYYCAKYPHYYGSSHWYFDVWGQGTLVTVSS
VL: B11 VL
notes: Anti-VEGF, IgG1, kappa; also called Bevacizumab
As to B12, the binding result in test [2] is “no binding”.

B13: 601-HC+601-LC-F71Y (antibody, human IgG1, kappa, V domains shown)
VH: B12 VH
VL: B11 VL with F71Y
B13: the EC50 with VEGF165-His [3] came to 0.148 nM. That is a sub-nanomolar value.

B14: 601-HC+601-LC-V94L (antibody, human IgG1, kappa, V domains shown)
VH: B12 VH
VL: B11 VL with V94L
With B14, in the test with VEGF165-His [4], the Kd came to 0.00746 nM, the off-rate (koff) amounted to 2.91e-05 s⁻¹ and the on-rate (kon) was 3.9e+06 M⁻¹ s⁻¹.

B15: 601-HC+601-LC-Y32F (antibody, human IgG1, kappa, V domains shown)
VH: B12 VH
VL: B11 VL with Y32F
The molecule B15 registered a 50% effective concentration (EC50) with VEGF165-His [3] of 0.125 nM.

B16: 20-Hu (antibody, human IgG4 S228P, kappa, V domains shown)
VH: B11 VH
VL: DIQMTQSPSSLSASVGDRVTITCSASQGISNFLSWYQQKPGKTVKLLIYYTSSLHSGVPSRFSGSGSGTDYTFTISSLQPEDIATYYCQQYSNLPWTFGQGTKVEIKR
notes: Humanized anti-human PD-1, IgG4 (S228P), kappa; also called 20-Humanized; 20-Hu-HC+20-Hu-LC
B16 gave an EC50 with PD1-His of 0.206 nM. Further, the binding result with VEGF165-His [1] is given as “no binding”.

B17: 601-HC+601-LC-V46L (antibody, human IgG1, kappa, V domains shown)
VH: B12 VH
VL: B11 VL with V46L
In the test with VEGF165-His [3], B17 showed an EC50 of 0.326 nM.

B18: 601-HC+601-LC-F50Y (antibody, human IgG1, kappa, V domains shown)
VH: B12 VH
VL: B11 VL with F50Y
In turn, B18 gave an EC50 in the test with VEGF165-His [3] of 0.14 nM.

B19: 601-HC+601-LC-N34S (antibody, human IgG1, kappa, V domains shown)
VH: B12 VH
VL: B11 VL with N34S
Take B19: in the test with VEGF165-His [3], a half-maximal response (EC50) required 0.208 nM.

B20: 601-HC+601-LC-T93N (antibody, human IgG1, kappa, V domains shown)
VH: B12 VH
VL: B11 VL with T93N
B20 came in with a concentration for a half-maximal effect (EC50) with VEGF165-His [3] of 0.126 nM. This EC50 lies about 1.7-fold lower than the previous one.

Usually EC50 stands for the concentration that produces a half-maximal response. A higher EC50 goes with lower potency in that assay. The term Kd denotes a measure of binding affinity in units of concentration. The koff is a measure of how fast the partners let go of each other. A high value points to a short-lived complex. As usually defined, the kon is the second-order rate constant of association. High values mean fast association, low ones slow association.
